# B1: PGT-131 (antibody, V domains shown)
# VH: QVQLQESGPGLVKPSETLSLTCTVSGDSINTGHHYWGWVRQVPGKGPEWIAHIHYNTAVLHNPALKSRVTISIFTLKNLITLSLSNVTAADTAVYFCVRSGGDILYYIEWQKPHWFYPWGPGILVTVSS
# VL: QSALTQPPSASGSLGQSLTISCSGTGSDIGSWNFVSWYQQFPGRAPNLIIFEVNRRRSGVPDRFSGSKSGNTASLTVSGLRSEDEAEYFCSSLSGRWDIVFGGGTKVTVL
# Key:
# Assay in all cases: cell-based or functional assay
# [1] = target: HIV-1 Env of isolate 98CN006 (subtype CRF08_BC) (HIV-1)
# [2] = target: HIV-1 Env of pseudovirus isolate MGRM-G-027 (subtype G) (HIV-1)
# [3] = target: HIV-1 Env of isolate MGRM-F1-008 (subtype F) (HIV-1)
# [4] = target: HIV-1 Env of pseudovirus isolate MGRM-G-016 (subtype G) (HIV-1)
# [5] = target: HIV-1 Env of isolate MGRM-D-014 (subtype D) (HIV-1)
# [6] = target: HIV-1 Env of isolate MGRM-D-029 (subtype D) (HIV-1)
# [7] = target: HIV-1 Env of pseudovirus isolate MGRM-G-024 (subtype G) (HIV-1)
# [8] = target: HIV-1 Env of isolate MGRM-D-004 (subtype D) (HIV-1)
# [9] = target: HIV-1 Env of pseudovirus isolate MGRM-G-009 (subtype G) (HIV-1)
# [10] = target: HIV-1 Env of isolate MGRM-D-018 (subtype D) (HIV-1)
# [11] = target: HIV-1 Env of pseudovirus isolate MGRM-G-028 (subtype G) (HIV-1)
# [12] = target: HIV-1 Env of isolate MGRM-F1-006 (subtype F) (HIV-1)
# [13] = target: HIV-1 Env of isolate MGRM-D-012 (subtype D) (HIV-1)
# [14] = target: HIV-1 Env of pseudovirus isolate MGRM-G-011 (subtype G) (HIV-1)
# [15] = target: HIV-1 Env of isolate MGRM-F1-020 (subtype F) (HIV-1)
# [16] = target: HIV-1 Env of isolate MGRM-D-021 (subtype D) (HIV-1)
# [17] = target: HIV-1 Env of isolate MGRM-D-005 (subtype D) (HIV-1)
# [18] = target: HIV-1 Env of pseudovirus isolate MGRM-G-013 (subtype G) (HIV-1)
# [19] = target: HIV-1 Env of pseudovirus isolate MGRM-G-014 (subtype G) (HIV-1)
# [20] = target: HIV-1 Env of isolate 92UG001 (subtype D) (HIV-1)
# [21] = target: HIV-1 Env of isolate MGRM-F1-012 (subtype F) (HIV-1)
# [22] = target: HIV-1 Env of isolate MGRM-F1-010 (subtype F) (HIV-1)
# [23] = target: HIV-1 Env of isolate MGRM-D-011 (subtype D) (HIV-1)
# [24] = target: HIV-1 Env of isolate MGRM-D-019 (subtype D) (HIV-1)
# [25] = target: HIV-1 Env of isolate 92UG024 (subtype D) (HIV-1)
# [26] = target: HIV-1 Env of pseudovirus isolate MGRM-G-019 (subtype G) (HIV-1)
# [27] = target: HIV-1 Env of isolate 92UG046 (subtype D) (HIV-1)
# [28] = target: HIV-1 Env of isolate MGRM-D-024 (subtype D) (HIV-1)
# [29] = target: HIV-1 Env of isolate MGRM-F1-018 (subtype F) (HIV-1)
# [30] = target: HIV-1 Env of isolate MGRM-D-002 (subtype D) (HIV-1)
# [31] = target: HIV-1 Env of isolate 92UG114 (subtype D) (HIV-1)
# [32] = target: HIV-1 Env of isolate MGRM-D-026 (subtype D) (HIV-1)
# [33] = target: HIV-1 Env of isolate MGRM-F1-021 (subtype F) (HIV-1)
# [34] = target: HIV-1 Env of isolate MGRM-D-028 (subtype D) (HIV-1)
# [35] = target: HIV-1 Env of isolate MGRM-D-013 (subtype D) (HIV-1)
# [36] = target: HIV-1 Env of isolate MGRM-F1-017 (subtype F) (HIV-1)
# [37] = target: HIV-1 Env of isolate MGRM-D-016 (subtype D) (HIV-1)
# [38] = target: envelope of aMLV pseudovirus (negative control)
# [39] = target: HIV-1 Env of isolate MGRM-F1-015 (subtype F) (HIV-1)
# [40] = target: HIV-1 Env of pseudovirus isolate MGRM-G-001 (subtype G) (HIV-1)
# [41] = target: HIV-1 Env of pseudovirus isolate MGRM-G-025 (subtype G) (HIV-1)
# [42] = target: HIV-1 Env of isolate MGRM-F1-004 (subtype F) (HIV-1)
# [43] = target: HIV-1 Env of isolate MGRM-D-020 (subtype D) (HIV-1)
# [44] = target: HIV-1 Env of pseudovirus isolate MGRM-G-015 (subtype G) (HIV-1)
# [45] = target: HIV-1 Env of isolate MGRM-D-008 (subtype D) (HIV-1)
# [46] = target: HIV-1 Env of pseudovirus isolate MGRM-G-017 (subtype G) (HIV-1)
# [47] = target: HIV-1 Env of pseudovirus isolate MGRM-G-006 (subtype G) (HIV-1)
# [48] = target: HIV-1 Env of isolate MGRM-F1-016 (subtype F) (HIV-1)
# [49] = target: HIV-1 Env of isolate MGRM-F1-014 (subtype F) (HIV-1)
# [50] = target: HIV-1 Env of isolate MGRM-F1-022 (subtype F) (HIV-1)
# [51] = target: HIV-1 Env of isolate MGRM-F1-023 (subtype F) (HIV-1)
# [52] = target: HIV-1 Env of isolate MGRM-D-022 (subtype D) (HIV-1)
# [53] = target: HIV-1 Env of isolate MGRM-F1-013 (subtype F) (HIV-1)
# [54] = target: HIV-1 Env of isolate 92UG005 (subtype D) (HIV-1)
# [55] = target: HIV-1 Env of isolate 98CN009 (subtype CRF07_BC) (HIV-1)
# [56] = target: HIV-1 Env of isolate MGRM-D-001 (subtype D) (HIV-1)
# [57] = target: HIV-1 Env of isolate MGRM-D-003 (subtype D) (HIV-1)
# [58] = target: HIV-1 Env of pseudovirus isolate MGRM-G-004 (subtype G) (HIV-1)
binder,measurement,setting,value
B1,IC50 (neutralization),[1],35.3 µg/mL
same,IC50,[2],2.9 µg/mL
same,IC50 (neutralization),[3],2.74 µg/mL
same,IC50,[4],> 50 µg/mL
same,IC50 (neutralization),[5],0.516 µg/mL
same,IC50 (neutralization),[6],> 50 µg/mL
same,IC50,[7],10.7 µg/mL
same,IC50 (neutralization),[8],2.01 µg/mL
same,IC50,[9],> 50 µg/mL
same,IC50 (neutralization),[10],0.148 µg/mL
same,IC50,[11],0.466 µg/mL
same,IC50 (neutralization),[12],> 50 µg/mL
same,IC50 (neutralization),[13],> 50 µg/mL
same,IC50,[14],> 50 µg/mL
same,IC50 (neutralization),[15],> 50 µg/mL
same,IC50 (neutralization),[16],0.106 µg/mL
same,IC50 (neutralization),[17],> 50 µg/mL
same,IC50,[18],> 50 µg/mL
same,IC50,[19],4.31 µg/mL
same,IC50 (neutralization),[20],> 50 µg/mL
same,IC50 (neutralization),[21],> 50 µg/mL
same,IC50 (neutralization),[22],> 50 µg/mL
same,IC50 (neutralization),[23],0.756 µg/mL
same,IC50 (neutralization),[24],> 50 µg/mL
same,IC50 (neutralization),[25],> 50 µg/mL
same,IC50,[26],> 50 µg/mL
same,IC50 (neutralization),[27],> 50 µg/mL
same,IC50 (neutralization),[28],> 50 µg/mL
same,IC50 (neutralization),[29],> 50 µg/mL
same,IC50 (neutralization),[30],11.2 µg/mL
same,IC50 (neutralization),[31],> 50 µg/mL
same,IC50 (neutralization),[32],> 50 µg/mL
same,IC50 (neutralization),[33],> 50 µg/mL
same,IC50 (neutralization),[34],> 50 µg/mL
same,IC50 (neutralization),[35],4.14 µg/mL
same,IC50 (neutralization),[36],> 50 µg/mL
same,IC50 (neutralization),[37],> 50 µg/mL
same,IC50,[38],> 50 µg/mL
same,IC50 (neutralization),[39],> 50 µg/mL
same,IC50,[40],0.404 µg/mL
same,IC50,[41],7.75 µg/mL
same,IC50 (neutralization),[42],0.114 µg/mL
same,IC50 (neutralization),[43],> 50 µg/mL
same,IC50,[44],> 50 µg/mL
same,IC50 (neutralization),[45],> 50 µg/mL
same,IC50,[46],> 50 µg/mL
same,IC50,[47],> 50 µg/mL
same,IC50 (neutralization),[48],> 50 µg/mL
same,IC50 (neutralization),[49],> 50 µg/mL
same,IC50 (neutralization),[50],> 50 µg/mL
same,IC50 (neutralization),[51],> 50 µg/mL
same,IC50 (neutralization),[52],> 50 µg/mL
same,IC50 (neutralization),[53],> 50 µg/mL
same,IC50 (neutralization),[54],0.854 µg/mL
same,IC50 (neutralization),[55],4.05 µg/mL
same,IC50 (neutralization),[56],> 50 µg/mL
same,IC50 (neutralization),[57],19.6 µg/mL
same,IC50,[58],> 50 µg/mL
